Test results from US11918645B2, “Vaccines against hepatitis B virus” (priority 2012, dated 2024).

Tests used:
[1] = molecular target: T1, HLA-DR13 (α1*01:01;β1*13:01) (Homo sapiens, UniProt P01903+P01911, A100E/A169T/K41T/L162R/M171V/P40S/Q125H/Q178H/Q39Y/Q99D/R42S/S66N/W38E/Y61H); test: ProImmune REVEAL MHC class II binding assay of long peptides; conditions: percentage of the signal of the positive control peptide; positive binding score >=15%
T1 construct: purchased ProImmune
Text: The highly frequent HLA class II alleles HLA-DR1 (α1*01:01;β1*01:01), HLA-DR15 (α1*01:01;β1*15:01), HLA-DR3 (α1*01:01;β1*03:01), HLA-DR4 (α1*01:01;β1*04:01), HLA-DR11 (α1*01:01;β1*11:01), HLA-DR13 (α1*01:01;β1*13:01), and HLA-DR7 (α1*01:01;β1*07:01) were selected. Each peptide was given a score relative to the positive control peptide, which is a known T-cell epitope.

[2] = system: HLA-DR1 (α1*01:01;β1*01:01); test: as above; set-up: species or system human; conditions: percentage of the signal of the positive control peptide; positive binding score >=15%
Text: (§1) The highly frequent HLA class II alleles HLA-DR1 (α1*01:01;β1*01:01), HLA-DR15 (α1*01:01;β1*15:01), HLA-DR3 (α1*01:01;β1*03:01), HLA-DR4 (α1*01:01;β1*04:01), HLA-DR11 (α1*01:01;β1*11:01), HLA-DR13 (α1*01:01;β1*13:01), and HLA-DR7 (α1*01:01;β1*07:01) were selected. Each peptide was given a score relative to the positive control peptide, which is a known T-cell epitope. The score of the test peptide is reported quantitatively as a percentage of the signal generated by the positive control peptide, and the peptide is indicated as having a putative pass or fail result. Good binders are considered to be those peptides with scores >=15% of the positive control as defined by Proimmune.

[3] = system: HLA-DR3 (α1*01:01;β1*03:0); test: as above; set-up: species or system human; conditions: percentage of the signal of the positive control peptide; positive binding score >=15%
Text: as §1

[4] = molecular target: T2, HLA-DR15 (α1*01:01;β1*15:01) (Homo sapiens, UniProt P01903+P01911); test: as above; conditions: percentage of the signal of the positive control peptide; positive binding score >=15%
T2 construct: purchased ProImmune
Text: as §1

[5] = molecular target: T3, HLA-DR7 (α1*01:01;β1*07:01) (Homo sapiens, UniProt P01903+P01911, A100R/A102G/A103Q/D57E/D86V/E43K/F76Y/K127E/L162R/M171V/P40G/Q125H/Q99D/R195Q/R33Q/R42Y/R54Q/S133A/S149N/S66F/T210M/V115G/Y107V/Y59L/Y89S); test: as above; conditions: percentage of the signal of the positive control peptide; positive binding score >=15%
T3 construct: purchased ProImmune
Text: as §1

[6] = molecular target: HLA-A*2402 (Homo sapiens, UniProt P04439, D101N/D140Y/D185E/E176V/E190D/F33S/G103R/G107R/I119L/I121M/I306V/K335N/L105A/L180Q/L300P/N151K/N90K/Q86E/Q94H/R106L/R138H/R89G/T104I/T345S/V100E/W191G/Y123F); test: ProImmune REVEAL MHC class I binding assay of nonamers; conditions: score as % of positive control peptide
Text: (§2) The number of HLA class I binding registers contained in each peptide may be determined by determining the ability of the peptide to bind to a range of frequently occurring HLA class I molecules. HLA class I binding may be measured using the ProImmune REVEAL® MHC-peptide Binding Assay (ProImmune Ltd, Oxford, UK). The REVEAL™ MHC peptide-binding assay measures the ability of each peptide to stabilize the ternary MHC-peptide complex for […], HLA-A*0201, HLA¬A*0301, HLA-A*2402, HLA-B*0702, HLA-B*0801, HLA-B*3501 representative of main HLA class I supertypes. Each tested peptide is given a score relative to a pass/fail control peptide and also compared to a positive control peptide.
(§3) Detection is based on the presence or absence of the native conformation of the MHC-peptide complex. The highly frequent HLA class I alleles (HLA-A*0201, A*0301, A*1101, A*2402, B*0702, B*0801, and B*3501) were selected. Binding to MHC molecules was compared to that of a known T-cell epitope, a positive control peptide, with very strong binding properties. […] The score of the test peptide is reported quantitatively as a percentage of the signal generated by the positive control peptide, and the peptide is indicated as having a putative pass or fail result. Good binders are considered to be those peptides with scores 45% of the positive control as defined by ProImmune.

[7] = molecular target: T4, HLA-A*1101 (Homo sapiens, UniProt P04439, A114D/D185E/E176A/F33Y/L180Q/S129P/T187R); test: as above; conditions: score as % of positive control peptide
T4 construct: purchased ProImmune
Text: as §2, §3

[8] = molecular target: T5, HLA-B*0702 (Homo sapiens, UniProt P01889); test: as above; conditions: score as % of positive control peptide
T5 construct: purchased ProImmune
Text: as §2, §3

[9] = molecular target: T6, HLA-A*0301 (Homo sapiens, UniProt P04439); test: as above; conditions: score as % of positive control peptide
T6 construct: purchased ProImmune
Text: as §2, §3

[10] = molecular target: HLA-B*0801 (Homo sapiens, UniProt P01889, A93T/A95T/D138N/E176V/E187T/K202T/Q94N/R180D/S35A/V36M/Y33D/Y91F); test: as above; conditions: score as % of positive control peptide
Text: as §2, §3

[11] = molecular target: HLA-A*0201 (Homo sapiens, UniProt P04439, D140Y/D185E/D98H/E176V/E277Q/G131W/G231S/I119V/I121R/I166T/I218V/L300P/L318F/N151K/N90K/P208A/P217A/Q86G/Q94H/R138H/R169H/T345S); test: as above; conditions: score as % of positive control peptide
Text: as §2, §3

[12] = molecular target: HLA-B*3501 (Homo sapiens, UniProt P01889, A329T/A93T/A95T/C349S/D201E/D98Y/E176V/E187L/E204Q/E69T/I218V/K202T/L119I/Q94N/R155S/R180L/S121R/S35A/S48A/T118I/V127L/V306I/V36M/Y140S/Y91F); test: as above; conditions: score as % of positive control peptide
Text: as §2, §3

[13] = system: HLA class II alleles; test: ProImmune REVEAL MHC class II binding assay, summary over the seven alleles; set-up: species or system human; conditions: number of class II alleles for which positive binding (score >=15%) was detected
Text: as §1

[14] = system: HLA class I alleles; test: ProImmune REVEAL MHC class I binding assay, summary over the seven alleles; set-up: species or system human; conditions: for Number of allele (b): number of class I alleles for which positive binding was detected; for Number of HLA binders (a): total number binding epitopes detected for each long peptide, seven class I alleles
Text: as §2, §3

[15] = system: PBMC from chronic HBV-infected subjects; test: IFNγ ELISpot of PBMC restimulated with individual unconjugated HBV long peptides (Example 5); format: cell-based, human; conditions: for T cell responses (IFNγ ELISpot), level and frequency of responders: HBeAg-negative inactive carriers and HBeAg-negative treated subjects, 5 μg/mL, 18 h, FIGS. 9 and 10; for T cell responses (IFNγ ELISpot) grouped by infecting HBV genotype: genotypes A, B, C & D, FIG. 11; for T cell responses (IFNγ ELISpot) grouped by ethnic background: three ethnic groups, FIG. 12
Method: One vial of PBMC from each subject (containing 1×10^7 cells) was thawed and lymphocyte numbers were determined using a Scepter™ automated handheld cell counter. PBMC were cultured in 2 mL culture medium (CM: RPMI-1640 Glutamax supplemented with 5% human AB serum) in 24 well cell culture plates at a concentration of 1×10^6 cells/mL for a total of 11 days. Cells were stimulated with a mixture of the nine HBV-derived long peptides described in Example 3.
Each peptide was used at a final concentration of 1 μg/peptide/mL. On Day 4, IL-2 and IL-15 were added to the cultures to final concentrations of 10 IU/mL and 10 ng/mL respectively. On Day 10, cells were washed twice in CM and cultured with 10 IU/mL IL-2 for 1 additional day. On Day 11, cells were washed twice in CM, counted and incorporated in a human IFNγ (interferon-gamma) ELISpot assay or intracellular cytokine staining.
Cells from short term cultures were plated in triplicate wells at 5×10^4 PBMC/well. Final antigen concentrations used were: 5 μg/mL for each individual peptides; PHA positive control: 1 μg/mL.

[16] = system: BALB/c mice; test: Immunogenicity in mice, IFNγ ELISpot of splenocytes, FP02.1 vs NP02.1 (Example 6); format: in vivo; conditions: mice immunised with FP02.1 or NP02.1, restimulation 5 μg/mL/peptide, FIG. 15
Method: The immunogenicity in mice of FP02.1 (containing nine fluorocarbon-conjugated peptides) was compared to NP02.1 (containing nine equivalent unconjugated peptides).
Alternatively, splenocytes were stimulated in vitro with 5 μg/mL/peptide of nine individual peptides for 18 hours in an ELISpot assay. The number of IFNγ+ spot forming cells (SFC) was counted. Plates then were washed with PBS, incubated with an IFNγ detection peroxidase-labelled antibody, followed by a substrate, according to the manufacturer's instructions.

T1 sequence (P01903 26-216, other chains not shown): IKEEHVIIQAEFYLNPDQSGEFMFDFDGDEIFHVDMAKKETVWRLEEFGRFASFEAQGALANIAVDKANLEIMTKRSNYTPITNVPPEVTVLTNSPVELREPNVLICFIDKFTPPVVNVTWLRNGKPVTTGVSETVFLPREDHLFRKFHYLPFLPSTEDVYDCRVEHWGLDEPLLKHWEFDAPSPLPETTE

Substance: NP277(K): unconjugated HBV long peptide, polymerase 260-293 + KKK (RVSWPKFAVPNLQSLTNLLSSNLSWLSLDVSAAFYHKKK; HBV CONSENSUS SEQUENCE)
- binding score, HLA-DR13 (α1*01:01;β1*13:01) [1]: 0.00%
- binding score, HLA-DR1 (α1*01:01;β1*01:01) [2]: 0.49%
- binding score, HLA-DR3 (α1*01:01;β1*03:0) [3]: 0.10%
- binding score, HLA-DR15 (α1*01:01;β1*15:01) [4]: 0.18%
- binding score, HLA-DR7 (α1*01:01;β1*07:01) [5]: 0.01%
- Number of nonamers having a binding score >= 45%, HLA-A*2402 [6]: 5
- Number of nonamers having a binding score >= 45%, HLA-A*1101 [7]: 0
- Number of nonamers having a binding score >= 45%, HLA-B*0702 [8]: 3
- Number of nonamers having a binding score >= 45%, HLA-A*0301 [9]: 0
- Number of nonamers having a binding score >= 45%, HLA-B*0801 [10]: 1
- Number of nonamers having a binding score >= 45%, HLA-A*0201 [11]: 6
- Number of nonamers having a binding score >= 45%, HLA-B*3501 [12]: 3
- Number of allele (a) [13]: 1
- Number of allele (b) [14]: 5
- Number of HLA binders (a) [14]: 18

Substance: NP376: unconjugated HBV long peptide, polymerase 359-398 (C to S substitution at 393) (KLHLYSHPIILGFRKIPMGVGLSPFLLAQFTSAISSVVRR; HBV CONSENSUS SEQUENCE)
- T cell responses (IFNγ ELISpot), level and frequency of responders [15]: highest level of responses in both patient populations and in the highest proportion of subjects
- T cell responses (IFNγ ELISpot) grouped by infecting HBV genotype [15]: highest responses across all four genotypes A, B, C & D
- T cell responses (IFNγ ELISpot) grouped by ethnic background [15]: highest responses across all three ethnic groups
- binding score, HLA-DR13 (α1*01:01;β1*13:01) [1]: 0.00%
- binding score, HLA-DR1 (α1*01:01;β1*01:01) [2]: 27.71%
- binding score, HLA-DR3 (α1*01:01;β1*03:0) [3]: 0.00%
- binding score, HLA-DR15 (α1*01:01;β1*15:01) [4]: 6.29%
- Number of nonamers having a binding score >= 45%, HLA-A*2402 [6]: 10
- Number of nonamers having a binding score >= 45%, HLA-A*1101 [7]: 1
- Number of nonamers having a binding score >= 45%, HLA-B*0702 [8]: 4
- Number of nonamers having a binding score >= 45%, HLA-A*0301 [9]: 0
- Number of nonamers having a binding score >= 45%, HLA-B*0801 [10]: 6
- Number of nonamers having a binding score >= 45%, HLA-A*0201 [11]: 8
- Number of nonamers having a binding score >= 45%, HLA-B*3501 [12]: 6
- Number of allele (b) [14]: 6
- Number of HLA binders (a) [14]: 35
- IFNγ response of splenocytes to each individual peptide component [16]: immune responses were dominated by four out of the 9 peptides contained in the vaccine
- IFNγ response of splenocytes to each individual peptide component ([16]; listed as P376): only observed with the formulation containing the fluorocarbon-conjugated peptides

Substance: NP797(K): unconjugated HBV long peptide, core 780-814 (C to S at 792) + KKK
- T cell responses (IFNγ ELISpot), level and frequency of responders [15]: highest level of responses in both patient populations and in the highest proportion of subjects
- T cell responses (IFNγ ELISpot) grouped by infecting HBV genotype [15]: highest responses across all four genotypes A, B, C & D
- T cell responses (IFNγ ELISpot) grouped by ethnic background [15]: highest responses across all three ethnic groups
- binding score, HLA-DR13 (α1*01:01;β1*13:01) [1]: 0.00%
- binding score, HLA-DR1 (α1*01:01;β1*01:01) [2]: 0.20%
- binding score, HLA-DR3 (α1*01:01;β1*03:0) [3]: 0.00%
- binding score, HLA-DR15 (α1*01:01;β1*15:01) [4]: 1.14%
- binding score, HLA-DR7 (α1*01:01;β1*07:01) [5]: 0.01%
- Number of nonamers having a binding score >= 45%, HLA-A*2402 [6]: 5
- Number of nonamers having a binding score >= 45%, HLA-A*1101 [7]: 1
- Number of nonamers having a binding score >= 45%, HLA-B*0702 [8]: 4
- Number of nonamers having a binding score >= 45%, HLA-A*0301 [9]: 1
- Number of nonamers having a binding score >= 45%, HLA-B*0801 [10]: 3
- Number of nonamers having a binding score >= 45%, HLA-A*0201 [11]: 6
- Number of nonamers having a binding score >= 45%, HLA-B*3501 [12]: 2
- Number of allele (a) [13]: 0
- Number of allele (b) [14]: 7
- Number of HLA binders (a) [14]: 22
